Data published in the Human Domainome abundance scans (Beltran et al. 2025).
± gives the uncertainty stated by the source.

B1: Intersectin-1, residues 909 to 971; numbered along this chain, Q15811 (parent)
chain: QGEKVEGLQAQALYPWRAKKDNHLNFNKNDVITVLEQQDMWWFGEVQGQKGWFPKSYVKLISG

Variants of: B1
Test: abundance fitness (aPCA) (normalised: wild type 0, dead -1); higher = more abundant; growth selection in yeast, the domain comes from the species named
Conditions: Homo sapiens
With QGEKVEGLQAQALYPWRAKKDNHLNFNKNDVITVVEQQDMWWFGEVQGQKGWFPKSYVKLISG [L35V] the abundance fitness was -0.34 ± 0.18. Variant QGEKVEGLQAQALYPWRAKKDNHLNFNKNDVITVLEQQDMPWFGEVQGQKGWFPKSYVKLISG [W41P] has an abundance fitness of -0.94 ± 0.2. QGEKVEGLQAQALYPWRAKKDNHLNFNKNDVITVLEQQDMHWFGEVQGQKGWFPKSYVKLISG [W41H] showed an abundance fitness of -0.36 ± 0.2. In the case of QGEKVEGLQAQALYPWRAKKDNHLNFNKNDVITVLEQQDMFWFGEVQGQKGWFPKSYVKLISG [W41F], the abundance fitness is reported as -0.238 ± 0.18. With QGEKVEGLQAQALYPWRAKKDNHLNFNKNDVITVLEQQDMWWFGEVQGQKGWFPKSYVKLISA [G63A] the abundance fitness was -0.058 ± 0.1. For QGEKVEGLQAQALYPWRAKKDNHLNFNKNDVITVLEQQDMWWFGEVQGQKGWFPKSYVKLISW [G63W], the abundance fitness was -0.276 ± 0.15. Work on QGEKVEGLQAQALYPWRAKKDNHLNFNKNDVITVLEQQDMWWFGEVQGQKGWFPKSYVKDISG [L60D] yielded an abundance fitness of -0.22 ± 0.23. In the case of QGEKVEGLQAQALYPWRALKDNHLNFNKNDVITVLEQQDMWWFGEVQGQKGWFPKSYVKLISG [K19L], the abundance fitness is reported as -0.045 ± 0.045. With QGEKVEGLQAQALYPWRAKKDNHLNFNKNDVITVLEQQDMWWFGEVQGQKGWFRKSYVKLISG [P54R] the abundance fitness was -0.714 ± 0.12. Variant QGEKVEGLQAQALYPWRAKKDNHLNFNKNDVITVLEQQDMWWFGEVQGQKGWFKKSYVKLISG [P54K] has an abundance fitness of -0.354 ± 0.22. In the case of QGEKVEGLQAQALYPWRAKKDNHLNFNKNDVITVLEQQDMWWFGEVQGQKGWFMKSYVKLISG [P54M], the abundance fitness is reported as -0.25 ± 0.11. For QGEKVEGLQAQALYPWRAKKDNHLNFNKNDVITVLEQQGMWWFGEVQGQKGWFPKSYVKLISG [D39G], the abundance fitness was -0.014 ± 0.057. Work on QGEKVEGLQAQALYPWRAKKDNHLNFNKNDVITVLEQQKMWWFGEVQGQKGWFPKSYVKLISG [D39K] yielded an abundance fitness of -0.268 ± 0.13. For QGEKVEGLQAQALYPWRAKKDNHLNFNKNDVITVLEQQYMWWFGEVQGQKGWFPKSYVKLISG [D39Y], the abundance fitness was -0.208 ± 0.27. For QGEKVEGLQAQALYPWRAKKDNHLNFNKNDVITVLEQQRMWWFGEVQGQKGWFPKSYVKLISG [D39R], the abundance fitness was -0.182 ± 0.072. In the case of QGEKVEGLQAQALYPWRAKKDNHLNFNKNDVITLLEQQDMWWFGEVQGQKGWFPKSYVKLISG [V34L], the abundance fitness is reported as -0.343 ± 0.083. With QGEKVEGLQAQALYPWRAKKDNHLNFNKNDVITVLEQQDMWWFGEVQGQAGWFPKSYVKLISG [K50A] the abundance fitness was -0.183 ± 0.1. QGEKVEGLQAQALYPWRAKKDNHLNFNKNDVITVLEQQDMWWFGEVQGQMGWFPKSYVKLISG [K50M] gave an abundance fitness of -0.177 ± 0.26. Variant QGEKVEGLQAQALYPWRAKKDNHLNFNKNDVITVLEQQDMWWFGEVQGQEGWFPKSYVKLISG [K50E] has an abundance fitness of -0.052 ± 0.12. In the case of QGEKVEGLQAQALYPWRAKKDNHLNFNKNDVITVLEQQDMWWFGEVQGQQGWFPKSYVKLISG [K50Q], the abundance fitness is reported as -0.308 ± 0.17. Work on QGEKVEGLQAQALYPWRAKKDNHLNFNKNDVITVLEQQDMWWFGEVQGQPGWFPKSYVKLISG [K50P] yielded an abundance fitness of -0.242 ± 0.28. With QGEKVEGLQAQALYPWRAKKDNHLNFNKNDVITVLEQQDMWWFGEVQGQDGWFPKSYVKLISG [K50D] the abundance fitness was -0.256 ± 0.2. QGEKVEGLQAQALYPWRAKKDNHLNFNKNDVITVLEQQDMWWFGEVQGQVGWFPKSYVKLISG [K50V] showed an abundance fitness of -0.26 ± 0.12. QGEKVEGLQAQALYPWRAKKDNHLNFNKNDVITVLENQDMWWFGEVQGQKGWFPKSYVKLISG [Q37N] showed an abundance fitness of -0.279 ± 0.22. Variant QGEWVEGLQAQALYPWRAKKDNHLNFNKNDVITVLEQQDMWWFGEVQGQKGWFPKSYVKLISG [K4W] has an abundance fitness of -0.08 ± 0.17. QGEKVEGLQAQALYPWRAKKDNHLNFNKNMVITVLEQQDMWWFGEVQGQKGWFPKSYVKLISG [D30M] showed an abundance fitness of -0.252 ± 0.051. In the case of QGEKVEGLQAQALYPWRAKKDNHLNFNKNQVITVLEQQDMWWFGEVQGQKGWFPKSYVKLISG [D30Q], the abundance fitness is reported as -0.036 ± 0.048. With QGEKVEGLQAQALYPWRSKKDNHLNFNKNDVITVLEQQDMWWFGEVQGQKGWFPKSYVKLISG [A18S] the abundance fitness was -0.058 ± 0.047. QGEKVEGLQAQALYPWRVKKDNHLNFNKNDVITVLEQQDMWWFGEVQGQKGWFPKSYVKLISG [A18V] showed an abundance fitness of -0.215 ± 0.052. With QGEKVEGLQAQALYPWRLKKDNHLNFNKNDVITVLEQQDMWWFGEVQGQKGWFPKSYVKLISG [A18L] the abundance fitness was -0.274 ± 0.065. QGEKVEGLQAQALYNWRAKKDNHLNFNKNDVITVLEQQDMWWFGEVQGQKGWFPKSYVKLISG [P15N] showed an abundance fitness of 0.087 ± 0.21. QGEKVEGLQAQALYIWRAKKDNHLNFNKNDVITVLEQQDMWWFGEVQGQKGWFPKSYVKLISG [P15I] showed an abundance fitness of -0.127 ± 0.2. QGEKVEGLQAQALYMWRAKKDNHLNFNKNDVITVLEQQDMWWFGEVQGQKGWFPKSYVKLISG [P15M] showed an abundance fitness of 0.114 ± 0.21. QGEKVEGLQAQALYPWRAKKDNHLGFNKNDVITVLEQQDMWWFGEVQGQKGWFPKSYVKLISG [N25G] showed an abundance fitness of -0.081 ± 0.052. With QGEKVEGLQAQALYPWRAKKDNHLRFNKNDVITVLEQQDMWWFGEVQGQKGWFPKSYVKLISG [N25R] the abundance fitness was -0.177 ± 0.13. In the case of QGEKVEGLQAQALYPWRAKKDNHLNFNKNDVITVLEQQDMWWFGEVQGQKGWFPKSNVKLISG [Y57N], the abundance fitness is reported as 0.212 ± 0.41. Work on QGEKVEGLQAQALYPWRAKKDNHLNFNKNDVITVLEQQDMWWFGEVQGQKGWFPKSGVKLISG [Y57G] yielded an abundance fitness of -0.572 ± 0.13. For QGEKVEGLQAQALYPWRAKKDNHLNFNKNDVITVLEQQDMWWFGEVQGQKGWFPKSVVKLISG [Y57V], the abundance fitness was -0.084 ± 0.11. QGEKVEGLQAQALYPWRAKKDNHLNFNKNDVITVLEQQDMWWFGEVQGQKGWFPKSMVKLISG [Y57M] showed an abundance fitness of 0.008 ± 0.13. With QGEKVEGLQAQALYPWRAKKDNHLNFNKNDHITVLEQQDMWWFGEVQGQKGWFPKSYVKLISG [V31H] the abundance fitness was -0.117 ± 0.038. For QGEKVEGLQAQALYPWRAKKDNHLNFNKNDPITVLEQQDMWWFGEVQGQKGWFPKSYVKLISG [V31P], the abundance fitness was -0.325 ± 0.036. For QGEKVEGLQAQALYPWRAKKDNHLNFNKNDVITVLEQQDMWWFGMVQGQKGWFPKSYVKLISG [E45M], the abundance fitness was -0.18 ± 0.17. QGEKVEGLQAQALYPWRAKKDNHLNFNKNDVITVLEQQDMWWFGTVQGQKGWFPKSYVKLISG [E45T] gave an abundance fitness of 0.073 ± 0.15.
